Measurements from patent US20180221513A1, “CONTRAST-AGENT-LABELED PEPTIDE AMPHIPHILE NANOFIBERS” (Northwestern University, priority 2015, published 2018).
peptoid linker = not defined here

Legend:
[1] = ICP-MS of leg muscles for Gd(III) retention after day 4; format: in vivo, mice; details: after four days; intramuscular PA gel 1 wt %, 10 mol % Gd(III)-PA
Procedure: To measure degradation in vivo, six wild-type mice received approximately 4 μL injections of PA gels at 1 wt % loaded with 10 mol % Gd(III)-PA relative to C16V3A3E3-NH2. The injections were applied with a modified syringe pump designed to inject while withdrawing the needle to produce a gelled track of PA in situ. Injection volume varied because track length varied slightly with mouse size and small variations in each injection geometry. The tract geometry was chosen to give accurate T1 determinations because imaging slice thickness could be greater without volume averaging effects. A total of five legs were injected with PA1, four legs with PA3, and three with 100% C16V3A3E3-NH2 as a control. Mice were imaged at day 0 immediately after injections and again at day 4. The Gd(III)-PA was clearly visible in all cases (FIG. 5). […]
For Gd(III) analysis, mouse leg muscles were excised and digested in 1 mL of nitric acid per gram of tissue in Teflon tubes. […] Digest was diluted and measured using the same conditions as above.
All measurements used a Thermo X series II ICP-MS (Thermo Fisher Scientific, Waltham, Mass., USA) operating with an ESI SC-2 autosampler (Omaha, Nebr., USA). […] The two most common isotopes of Gd, 157Gd and 158Gd, were measured. 115In and 165Ho were measured as internal standards.

[2] = T1 and T2 relaxivity (r1, r2) at 1.41 T, Bruker Minispect relaxometer; format: physicochemical; details: 1.41 tesla
Procedure: Using a Bruker Minispect relaxometer operating at 1.41 T, T1 and T2 relaxivity values (r1 and r2) were determined for each agent (Table 1). […] Thermal annealing followed by addition of CaCl2 caused complex changes in the observed agent relaxivity (Table 1). […] This increased accessibility is consistent with a more extended molecular structure as indicated by SAXS.
All concentrations used in relaxivity determination were obtained using ICP-MS. Samples were digested using ACS reagent grade nitric acid (70%) for a least 2 hours at 70° C. Samples were diluted in filtered, deionized water. A standard containing the elements Bi, Ho, In, Li, Sc, Tb, and Y was added to a final concentration of 5 ng/mL (Inorganic Ventures, Christiansburg, Va., USA). Final nitric acid concentration was 3%. The instrument was calibrated using a serial dilution of Gd(III) standards (Inorganic Ventures, Christiansburg, Va., USA) with nitric acid and internal standard concentrations identical to the samples. Calibration was conducted with 1.000, 5.000, 10.00, 20.00, 50.00, 100.0, and 200.0 ng/mL Gd(III) standards.
T1 Measurements were performed at 1.41 T with a Bruker Minispect mq60 magnet, using an inversion recovery sequence. T2 measurements were acquired using a Carr-Purcell-Meiboom-Gill (CPMG) pulse sequence. PAs were weighed out and dissolved in Millipore water to form 1 mg/mL solutions, and then these solutions were serial diluted to 0.5, 0.25, 0.125, 0.05, and 0.01 mg/mL concentrations. For each concentration, T1 and T2 were measured. These solution concentrations were then measured using ICP-MS for relaxivity determination. Samples were lyophilized and resuspended in 50 mM Tris and 150 mM NaCl buffer. These were then adjusted using small volumes of 0.1 M NaOH to reach pH 7.4. T1 and ICP-MS measurements were then taken of these solutions. The relaxometer tubes were heated at 80° C. for 30 min in a water bath. The bath was allowed to come to room temperature over several hours. T1 times were measured. Finally, 100 μL of 20 mM CaCl2 solution was added to each tube. The tubes were vortex-mixed and allowed to stand for 20 minutes. ICP-MS and T1 measurements were conducted once more.

[3] = 1H NMRD profiles, fits with modified Florence approach; format: physicochemical; details: fits at 37° C.
Procedure: ^1NMRD profiles were collected with a Stelar Spinmaster FFC-2000-1T fast field cycling relaxometer in the 0.01-40 MHz proton Larmor frequency range, at 293 and 310 K. Longitudinal relaxation rates were measured with an error smaller than 1%. Proton relaxivities were calculated by subtracting the diamagnetic contribution of the peptide nanofibers in the absence of Gd(III) from the relaxation rates of the paramagnetic samples, and normalizing to 1 mM Gd(III) concentration. The profiles were analyzed using the Freed model for outer-sphere relaxation (refs. 48, 49; incorporated by reference in their entireties) and the modified Florence NMRD program for the inner-sphere relaxation (refs. 45, 46, 50; incorporated by reference in their entireties). The effect of static ZFS on nuclear relaxation is considered along with transient ZFS, where modulation is responsible for electron relaxation, provided molecular reorientation time is much longer than electron relaxation time (refs 51,52; incorporated by reference in their entireties). In order to establish which parameter was dominant in relaxivity changes, NMRD profiles of each PA were measured. NMRD profiles for all four PAs at 25° and 37° C. are shown in FIG. 3 with parameter fits obtained using the “modified Florence” approach (refs. 44-46;1 incorporated by reference in their entireties). In the fits, a Lipari-Szabo order parameter S^2 was included to consider the effect of local motions which may superimpose to the global motion of the nanostructures. A smaller S^2 value indicates a less restricted local mobility (e.g., a more flexible linkage between fiber and macrocycle). […] The NMRD fits show τm is primarily responsible for the variation in relaxivity observed upon annealing and Ca2+ cross-linking (Table 2). It is contemplated that annealing and calcium addition change macrocycle presentation on the fiber surface, extending them from the structure with increased peptide packing density and facilitating faster water exchange. […] The ^1H NMRD profiles were analyzed assuming one water molecule regularly coordinated to the Gd(III) ion in the presence of freely diffusing outer-sphere water. The contribution of the coordinated water protons […]) to the relaxation of bulk water protons (R1) largely depends on the τM of coordinated water if τ[…], as expected for Gd(HP-DO3A), according to the following relationship: R1=fM(1/[…]+τM)^-1+Ros where f^M is the mole fraction of ligand nuclei in bound positions and Ros is the outer-sphere contribution. […] is calculated by considering the simultaneous presence of both static (D) and transient (Δt) ZFS, as needed for Gd(III) complexes, through the “modified Florence” NMRD program, 4-6 assuming slow rotation, i.e. the molecular tumbling time τR is much longer than the electron relaxation time Tle. The PA fiber's micron-scale size assures that TR could be fixed to a large, constant value (≥100 ns) in the calculation of the relaxation profile. The ^1H NMRD profiles of PA 1 were repeated at both temperatures using the same Δt value of 0.0142 cm-1, D=0.046 cm-1, θ=42° (angle between the z-axis of the ZFS tensor and the metal-water direction) and a correlation time for electron relaxation τV=24 ps. A distance of closest approach of diffusing water molecules (d) of 7-10 Angstroms should be set, i.e. somewhat larger than usually found in isolated Gd(III) chelates (3.5-4 Å). […]

[4] = Addition of CaCl2 to annealed solution

Row | Compound | Gd(III) retention: remained in the mouse leg (ICP-MS) [1] | r1 (T1 relaxivity) [2, 4] | r2 (T2 relaxivity) [2, 4] | r1 (T1 relaxivity) ([2]; After Thermal Annealing) | r2 (T2 relaxivity) ([2]; After Thermal Annealing) | r1 (T1 relaxivity) ([2]; H2O) | r2 (T2 relaxivity) ([2]; H2O) | r1 (T1 relaxivity) ([2]; Tris Buffer (pH 7.4)) | r2 (T2 relaxivity) ([2]; Tris Buffer (pH 7.4)) | τm (water exchange lifetime), best-fit value ([3]; Annealed) | τm (water exchange lifetime), best-fit value ([3]; Buffered) | τm (water exchange lifetime), best-fit value ([3]; Ca^2+) | S^2 (Lipari-Szabo order parameter), best-fit value [3] | τlocal, best-fit value [3]
1 | CCCCCCCCCCCCCCCC(=O)N[C@H](C(=O)N[C@H](C(=O)N[C@H](C(=O)N[C@@H](C)C(=O)N[C@@H](C)C(=O)N[C@@H](C)C(=O)N[C@@H](CCC(=O)O)C(=O)N[C@@H](CCC(=O)O)C(=O)N[C@@H](CCC(=O)O)C(=O)NCC(=O)N(CC(=O)N(CC(=O)N(CC(N)=O)Cc1cn(CC(O)CN2CCN(CC(=O)O)CCN(CC(=O)O)CCN(CC(=O)O)CC2)nn1)Cc1cn(CC(O)CN2CCN(CC(=O)O)CCN(CC(=O)O)CCN(CC(=O)O)CC2)nn1)Cc1cn(CC(O)CN2CCN(CC(=O)O)CCN(CC(=O)O)CCN(CC(=O)O)CC2)nn1)C(C)C)C(C)C)C(C)C (some centres unmarked) (Gd complex, metal not drawn) [PA3] | 54±9% | – | – | – | – | – | – | – | – | – | – | – | – | –
2 | C16-VVVAAAEEE-(peptoid linker)-(Gd(HP-DO3A) macrocycle) (C16-VVVAAAEEE-{peptoid linker-Gd(HP-DO3A)}; reading uncertain; also: Gd(III) chelated in HP-DO3A macrocycle) [PA2, V3A3E3 peptide amphiphile, Gd(III) contrast agent conjugated at the C-terminus without a glycine linker] | – | 21.7 ± 0.1 mM⁻¹ s⁻¹ | 45 ± 2 mM⁻¹ s⁻¹ | 16.9 ± 0.2 mM⁻¹ s⁻¹ | 28.6 ± 0.6 mM⁻¹ s⁻¹ | 17.3 ± 0.8 mM⁻¹ s⁻¹ | 39 ± 2 mM⁻¹ s⁻¹ | 16.7 ± 0.2 mM⁻¹ s⁻¹ | 32.2 ± 0.5 mM⁻¹ s⁻¹ | 540 ns | 640 ns | 410 ns | 0.3 | 4 ns
